Values quoted from earlier work in publication PMC7602216.

Biological target: UBA5 UIS (Homo sapiens) (UniProt Q9GZZ9)
Test: ITC

Q: For UFM1 (from UniProt P61960), which Kd is on record?
A: 8 µM
